Test results from patent US20240025971A1 (ATRECA, published 2024).
Substitutions are numbered along the chain they refer to.

B1: AB-009190 (antibody, V domains shown)
VH: QVQLVESGGGVVQPGRSLRLSCAASGFTFSSYAMHWVRQAPGKGLEWVAVISYDGSNKYYADSVKGRFTISRDNSKNTLYLQMNSLRAEDTAVYYCARLNGDAYYYYGMDVWGQGTTVTVSS
VL: not shown
notes: human IgG1
B2: AB-009271 (antibody, V domains shown)
VH: EVQLVESGGGLIQPGGSLRLSCAASGFIVSSNYMSWVRQAPGKGLEWVSVIYSGGSTYYADSVKGRFTISRDNSKNTLYLQMNSLRAEDTAVYYCARDYGDFYFDYWGQGTLVTVSS
VL: EIVMTQSPATLSVSPGERATLSCRASQSVSSNLAWYQQKPGQAPRLLIYGASTRATGIPARFSGSGSGTEFTLTISSLQSEDFAVYYCQQYYNWPRTFGQGTKVEIK
notes: human IgG1
B3: AB-009613 (antibody, V domains shown)
VH: B2 VH with I28T
VL: not shown
notes: human IgG1
B4: AB-009666 (antibody, V domains shown)
VH: EVQLVESGGGLVQPGGSLRLSCAASGFTFSSYDMHWVRQATGKGLEWVSTIGTAGDTYYPGSVKGRFTISRENAKNSLYLQMNSLRAEDTAVYYCARVNYDSSGYPTYWYFDLWGRGTLVTVSS
VL: DIQMTQSPSSLSASVGDRVTITCRASQSISRYLNWYQQKPGKAPKLLIYAASSLQSGVPSRFSGSGSGTDFTLTISSLQPEDFATYNCQQSYSSPPWTFGQGTKVEIK
notes: human IgG1
B5: AB-009627 (antibody, V domains shown)
VH: QVQLQQWGAGLLKPSETLSLTCAVYGGSFSGYYWSWIRQPPGKGLEWIGEINHSGSTNYNPSLKSRVTISVDTSKNQFSLKLSSVTAADTAVFYCARGGYSSSWYGEKYWFDPWGQGTLVTVSS
VL: QSALTQPRSVSGSPGQSVTISCTGTSSDVGGYNYVSWYQQHPGKAPKLMIYDVSKRPSGVPDRFSGSKSGNTASLTISGLQAEDEADYYCCSYAGSPYVFGTGTKVTVL
notes: human IgG1
B6: AB-009610 (antibody, V domains shown)
VH: QVQLVQSGAEVKKPGSSVKVSCKASGGTFSNYAISWVRQAPGQGLEWMGRIIPILGIANYAQKFQGRVTITADKSTSTAYMELSSLRSEDTAVYYCATTPYYYDSSGYYLDYWGQGTLVTVSS
VL: not shown
notes: human IgG1
B7: AB-009213 (antibody, V domains shown)
VH: EVQLVESGGGLVKPGGSLRLSCAASGFTFSSYSMNWVRQAPGKGLEWVSSISSSSSYIYYADSVKGRFTISRDNAKNSLYLQMNSLRAEDTAVYYCARDKLREDGDYDDAFDIWGQGTMVTVSS
VL: not shown
notes: human IgG1
B8: AB-009665 (antibody, V domains shown)
VH: QVQLVQSGAEVKKPGASVKVSCKVSGYTLIELSMHWVRQAPGKGLEWMGGFDPEDGETIYAQKFQGRVTMTEDTSTDTAYMELSSLRSEDTAVYYCAAARVFGVATWFDPWGQGTLVTVSS
VL: QSVLTQPPSVSAAPGQKVTISCSGSSSNIGNNYVSWYQQLPGTAPKLLIYDNNKRPSGIPDRFSGSKSGTSATLGITGLQTGDEADYYCGTWDSSLSAGVFGGGTKLTVL
notes: human IgG1
B9: AB-009634 (antibody, V domains shown)
VH: QVTLKESGPALVKPTQTLTLTCTFSGFSLSTSGMRVSWIRQPPGKALEWLARIDWDDDKFYSTSLKTRLTISKDTSKNQVVLTMTNMDPVDTATYYCARYYYYGMDVWGQGTTVTVSS
VL: not shown
B10: AB-010020 (antibody, V domains shown)
VH: QMQLVQSGPEVKKPGTSVKVSCKASGFTFTSSAVQWVRQARGQRLEWIGWIVVGSGNTNYAQKFQERVTITRDMSTSTAYMELSSLRSEDTAVYYCAAPACSSTSCYDGFDIWGQGTMVTVSS
VL: not shown
notes: human IgG1
B11: AB-010021 (antibody, V domains shown)
VH: B10 VH with P99V, A100Y, S103G, T104G, Y107L, G109A
VL: not shown
notes: human IgG1; also called AB-0010021
B12: AB-009119 (antibody, V domains shown)
VH: EVQLVESGGGLVQPGGSLKLSCAASGFTFSGSAMHWVRQASGKGLEWVGRIRSKANSYATAYAASVKGRFTISRDDSKNTAYLQMNSLKTEDTAVYYCTRHGTTVNWGQGTLVTVSS
VL: not shown
notes: human IgG1
B13: AB-009095 (antibody, V domains shown)
VH: EVQLVQSGAEVKKPGESLIISCTGSGYTFATFWITWVRQMPGKGLEWLGRIDPSDSYTNYNPSFQGHVTVSVDRSINTAYLELTSLKASDTAIYYCARQMYNTGWPIPNYSDYWGQGTLVTVSS
VL: QSALTQPPSASGSPGQSVTISCAGASTDVGVYNFVSWYQQHPGKAPKLIIFDVNKRPSGVPDRFSGSKSGNTASLTVSGLQAEDEADYYCSSYEVGNNFVFGTGTKVTVL
notes: human IgG1

Each binder was assayed against T1, SARS-CoV-2 Envelope (E) protein (SARS-CoV-2, UniProt P0DTC4 1-75) (assay: ELISA, Envelope protein).

Row | Binder | Optical Density (OD; 450 nm)
1 | B1 | 0.469 OD450

These binders were tested against T1, SARS-CoV-2 Envelope (E) protein (assay: ELISA).

Row | Binder | binding result
2 | B2 | no binding (tested: 2-fold over hIgG1 background)
3 | B3 | no binding (tested: 2-fold over hIgG1 background)
4 | B4 | no binding (tested: 2-fold over hIgG1 background)
5 | B5 | no binding (tested: 2-fold over hIgG1 background)
6 | B6 | no binding (tested: 2-fold over hIgG1 background)

The binders below were run against T2, SARS-CoV-2 Spike (S) trimer (SARS-CoV-2, UniProt P0DTC2 14-1208) (assay: ELISA).
T2 construct: also called Spike trimer

Row | Binder | binding result
7 | B1 | no binding (tested: 2-fold over hIgG1 background)
8 | B7 | no binding (tested: 2-fold over hIgG1 background)

What follows are binders tested against T2, SARS-CoV-2 Spike (S) trimer (assay: ELISA, S trimer coated, 1:50 dilution).

Row | Binder | Optical Density (OD; 450 nm)
9 | B8 | 1.38 OD450
10 | B2 | 2.94 OD450
11 | B3 | 2.47 OD450
12 | B4 | 2.76 OD450
13 | B6 | 2.02 OD450

These binders were tested against SARS-CoV-2 Spike (S) trimer (SARS-CoV-2, UniProt P0DTC2 14-1208) (assay: ELISA, S trimer coated, 1:50 dilution).

Row | Binder | Optical Density (OD; 450 nm)
14 | B9 | 2.46 OD450

The binders below were run against SARS-CoV-2 Wuhan-1 full-length Spike protein (SARS-CoV-2, UniProt P0DTC2 14-1273) (assay: cell-based or functional assay).

Row | Binder | Pseudovirus Neutralization
15 | B2 | 0.058 µg/mL
16 | B3 | 1.53 µg/mL
17 | B10 | 0.004 µg/mL
18 | B11 | 1.56 µg/mL
19 | B6 | 6.77 µg/mL

These binders were tested against SARS-CoV-1 spike (pseudovirus) (SARS-CoV-1, UniProt P59594 14-1255) (assay: cell-based or functional assay).

Row | Binder | Pseudovirus Neutralization
20 | B2 | > 50 µg/mL
21 | B3 | > 50 µg/mL
22 | B10 | > 50 µg/mL
23 | B11 | > 50 µg/mL
24 | B6 | > 50 µg/mL

What follows are binders tested against T3, SARS-CoV-2 Receptor Binding Domain (RBD) (SARS-CoV-2, UniProt P0DTC2 319-541) (assay: BLI).
T3 construct: also called RBD protein

Row | Binder | binding result
25 | B8 | no binding (tested: 300 nM)
26 | B12 | no binding (tested: 300 nM)
27 | B13 | no binding (tested: 300 nM)
28 | B1 | no binding (tested: 300 nM)
29 | B7 | no binding (tested: 300 nM)

Each binder was assayed against SARS-CoV-2 Nucleocapsid (N) protein (SARS-CoV-2, UniProt P0DTC9 1-419) (assay: BLI).

Row | Binder | binding result
30 | B2 | no binding (tested: 300 nM)
31 | B3 | no binding (tested: 300 nM)
32 | B4 | no binding (tested: 300 nM)
33 | B5 | no binding (tested: 300 nM)
34 | B6 | no binding (tested: 300 nM)

These binders were tested against T4, SARS-CoV-2 S2 protein (SARS-CoV-2, UniProt P0DTC2 686-1213) (assay: BLI).
T4 construct: domain: S2 protein; also called S2 monomer

Row | Binder | binding result
35 | B8 | no binding (tested: 300 nM)
36 | B2 | no binding (tested: 300 nM)
37 | B3 | no binding (tested: 300 nM)
38 | B10 | no binding (tested: 300 nM)
39 | B11 | no binding (tested: 300 nM)
40 | B4 | no binding (tested: 300 nM)
41 | B1 | no binding (tested: 300 nM)
42 | B6 | no binding (tested: 300 nM)
43 | B7 | no binding (tested: 300 nM)

What follows are binders tested against T5, SARS-CoV-2 S1 protein (SARS-CoV-2, UniProt P0DTC2 16-685) (assay: BLI).
T5 construct: domain: S1 protein; also called S1 monomer

Row | Binder | binding result
44 | B8 | no binding (tested: 300 nM)
45 | B12 | no binding (tested: 300 nM)
46 | B13 | no binding (tested: 300 nM)
47 | B5 | no binding (tested: 300 nM)
48 | B1 | no binding (tested: 300 nM)
49 | B7 | no binding (tested: 300 nM)
